# In the DeepSol protein solubility set:
# Test: soluble on expression in E. coli; label from the status in PepcDB or PDB records
row,Sequence,soluble on expression in E. coli
1,MSLTKVSSLGYPRLGENREWKKLIEAYWAGKVSKNDLFAGAKELRLDFLKKQLNAGLDLIPVGDFSLYDHILDLSVQFNIIPKRFAKEPIDIDLYFAIARGNKENVASSMKKWFNTNYHYIVPEWSKQRPKLNNNRLLDLYLEAREVVGDKAKPVITGPITYVALSTGVEDFTAAVKSLLPLYKQVFTELVKAGASYIQVDEPIFVTDEGKDYLQAAKAVYAYFAKEVPDAKFIFQTYFEGLIDSQVLSQLPVDAFGLDFVYGLEENLEAIKTGAFKGKEIFAGVIDGRNIWSSDFVKTSALLETIEEQSAALTIQPSCSLLHVPVTTKNETDLDPVLRNGLAFADEKLTEVKRLAEHLDGREDPAYDLHIAHFDALQAADFRNVKLEDLSRVATKRPSDFAKRRDIQQEKLHLPLLPTTTIGSFPQSREIRRTRLAWKRGDISDAEYKQFIQAEIERWIRIQEDLDLDVLVHGEFERVDMVEFFGQKLAGFTTTKFGWVQSYGSRAVKPPIIYGDVQHLEPITVEETVYAQSLTDRPVKGMLTGPITITNWSFERTDIPRDQLFNQIGLAIKDEIKLLENAGIAIIQVDEAALREGLPLRKSKQKAYLDDAVHAFHIATSSVKDETQIHTHMCYSKFDEIIDAIRALDADVISIETSRSHGDIIESFETAVYPLGIGLGVYDIHSPRVPTKEEVVANIERPLRQLSPTQFWVNPDCGLKTRQEPETIAALKVLVAATKEVRQKLGNEGHHHHHH,soluble
2,MSLTKYIFVTGGVVSSIGKGIVAASLGRLLKNRGLKVTIQKFDPYINVDPGTMSPYQHGEVFVTDDGAETDLDLGHYERFIDINLNKYSNVTTGKIYSEVLRKERKGEYLGATVQVIPHITNEIKEKIMRAAKMTDADVIITEVGGTVGDIESLPFLEALRQMKADMGSDNVMYIHTTLIPYLKAAGEMKTKPTQHSVKELRSLGIQPNILVVRTELPVSQNTKNKLAQFCDVNPEAVIESRDVETLYSIPLALQAQNMDQIVCDHLKLDAPAADMTEWRALEEKVLNLKKKTKIALVGKYVELPDAYISVVEALKHAGFDFDSDIEIDWVDSQELTAENVAERIGSADGILVPGGFGDRGIEGKIEAIRFARENDVPFLGICLGMQMACVEFGRNVVGLEDAGSAETNPDVTNNIIDLMADQENIENLGGTLRLGLYPCKLKKGTKTAAAYGNEDVVQERHRHRYEFNNKYRQLFEENGLVFSGVSPDNRLVEIVEIPEKQFFVACQFHPELISRPNRPQRLIKGFVGAALANKEKGHHHHHH,soluble
3,MSLTLSPTTIFPARCIHTMNATQPRATHVAVREGRILDVGDASLREAWPDAVVDSRFSDKVLLPGLIEGHSHLLEGGMWRFVYVGYYDRRGPDGRVWPGLKSYEAVIERLRAAEALMPDAQAPLLAWGFDPIHFGGQRMTTCHLDQVSKTRRIVVLHASVHLLNVNTAMLRQADIHAGLRIDGIVRAADGTPTGELQEFAAMFMVFKHIGNVFFDAGQSEEGIRNFAKIAQQAGVTTATDLSHALADDMVDNLVRVTGEDDFPLRLVAAYSPMRDMNGRSVDRVVRATQRNTAKLHFGLVKLVIDGSIQGYTARVRWPGYHNGAPNGMWIIAPQQLRELLMEYHKAGLTIHIHTNGDEATEVAMDALESVLAEYPRWDHRHTLQHCQMADAAQFRRMARLGMCANLFANHLYFWGDAHYTDTLGPARAFRMNAAKTALQAGVPISLHSDAPITPIGPLFTAWCAVNRVTAGGRILGSQERIPVMDALHAMTLGAAYTLKLDHLIGSIEVGKLADFAVLEADPLEVAPQDLAGIGIWGTVLGGRSFPAPQLSEGHHHHHH,soluble
4,MSLTMREVAKAAGVSIKTVSNVVNDYEFVSQATRDKVNKAIAELGYTVNVSARNLRRGQTGIIGLAIPDLQMPYFAQLSSLVIEEAKKVGLRVIVEPTQYSRDGELEALHGSQQMMIDGLIYSPLELGQDDVEQLKVDYPLVLVGERIFTDQVDHIATENVEGAKRATQYLLTTGCRRVAVVGVHPGEKVGSAALRYQGYLEALEEAGVEFDDRLVVESGMWHRSDGVRAMNALLDSGVEVDGVVALNDMLASGVMHAIQMHGLHIPDDISVVGFDNSDDSQYLSPALTSIAPGLEAVARLSVKVLKERIDGRDPNADRPGEKVFRKVASSLVVRQSTEGHHHHHH,soluble
5,MSLTNLHYTVKSLMRFKDKTVIISGGGNSAIDWANELEPIAKKVYLTYRKEALNGHEAQISQLLSSSATCLFHTTISKLIARDNKEVIEQVELTDHQTGEVTNLAVDEVIINHGYERDKSLLDQSEVTLDRIDDYYIAGTPTSATSVGGIYAAGDVLKHEGKLHLIAGAFQDAANAVNQAKQWIEPEAHQSAMVSSHNHVFKERNRELIRQMLKEGHHHHHH,not soluble
6,MSLTNQVTYLFFHGMKQISEHLFTTEEQAIIARSKAEGSYMKAPNGQATNLNKKQWAQVRTRAFREWFGDWENNPDEASKVRDANGEPLVVYHGTPISRDQAADRSKFRIADDWEIQTINAPFHTFRGGAYNGLIFTSLTEEKARSIGETRSMSIPDSEDGREQWTTDSYVYDLFVNARQPFDVKNPNAVKDILDALEGQLTAYDFYLGMEVPVSRKEAEKILEGGNSWRVVETPSMQEIIRSRGYDAIHALDEGVQYMAVFAPNQLKASGKYLYSERNTGVFSPGNNDIRFREVHHGVPASFTGYRSMKTETVRNDNIPAVLAALREKLEDTEQEWQDRILDYIAENYPTQTTVSAQTRSPEGLKEREAMKEGHHHHHH,soluble
7,MSLTPGRFLGWENADTASRTASDAIAVMDRRTWQALTTGHVELPCRRIHAGLWFRLLRTLLDELNTPLSACGTYAGYLRQVWQGCGHPLRAGQSLWRPYETLNPAIRLQMLEAAATAISLIEVRDISPPGEHAKLFWSELQTGFTSGLPAKPPKPEPVNHWQRAVQAISEAIIEARHDPETARSLFAMASYGRRDPASLEQLRATFAKEGIPPEFLSHYEADGPFACLRQNDGLSDKEGHHHHHH,not soluble
8,MSLTPPLAPKTVAALHRLGIRTLEELRQNGSVKAFLLLKASGLTLTKSTLWQLESLLDGTPPQEMSQAHKARLLAELKNHPPVAAFPPQEEMEHFMCEALRQAEQSSADGEIPVGAVIVSDGKIIASAHNTCIADCNVSRHAEINALAQAGREIQNYRLDGCDIYITLEPCAMCASALIQARIRRVIYGAAEPKTGAAGSIVNLFADKRLNTHTAIRGGILQEECRAVLSRFFQNKREGHHHHHH,soluble
9,MSLTQMNYAKEGIFTKEMQIVAQKENLSKDFLLENIACGKIIIPANINHKSLDPNGIGFGLRTKVNVNLGVSNDCVDYSEEMKKVELAHKFGIEAIMDLSNYGKTSRFRDELVNVSKAMIGTVPVYDAVGFLEKDLKQINAKDFLDVVYHHAKSGVDFMTIHAGINSRAAHIFKQSKRLTNIVSRGGSVLYAWMMMKDAENPFFEYYDDLLDICLKYDVTLSLGDALRPGSTHDASDGAQISELIELSLLTQRAWDVGIQVMIEGPGHMAINEIEANMQLEKRLCKGAPFYVLGPLVTDIGAGYDHISGAIGGAVAAASGADMLCYVTPAEHLRLPNLEDVREGIVATKIAAHAGDIAKLPKERARDDEMSKARQEIDWEKMFKLAIDGEKAKKMFNERRPDDLNSCSMCGKMCAMNTMNQILKGEDVSLAEGHHHHHH,soluble
10,MSLTQRITMEDIARQSGVSLATVSLVLRDKPGINDETRRRVLDIARDLGYRKRLNHEKLVSQSLHNAGVIVKASIGDDSPLTNPFYAPIVAGIEAACRKMHINLMYATVPVDMDNHPQEMPRLLSEDHLDGVLLVGAFADATITKLLQREGIPAVLVDGYSHEHVYDSVVSDNFRAAYEAVSYLISYGHRHIGLIGTTKEAYPSIAERRKGYIQALTDHGIHDQYFGDCLLTMHEGSDTSSILLQRHPQITALFCANDMMAIGATQAARALHRQIPQDLSIIGFDNIDLAQHVAPALTTMHVDKVSMGRFAVQLLANRAEYPDQAPATVSLRPRLLERQSVQREGHHHHHH,soluble
11,MSLTQSSKLIAVIVANIDDYFSTELFKGISSILESRGYIGVLFDANADIEREKTLLRAIGSRGFDGLILQSFSNPQTVQEILHQQMPVVSVDREMDACPWPQVVTDNFEAAKAATTAFRQQGYQHVVVLTSELELSRTRQERYRGILAAAQDVDVLEVSESSYNHSEVHQRLTQLITQNDQKTVAFALKERWLLEFFPNLIISGLIDNQTVTATGFADTDFIRRMEPKLTLITQNPFLMGASSAEIMLRQLAGEKVAPEKMVIPAKLQEGHHHHHH,soluble
12,MSLTREAYHRLTPLPHPGGRLFIKPGARGYRDPVHDLLQKTVEPFGERALDLNPGVGWGSLPLEGRMAVERLETSRAAFRCLTASGLQARLALPWEAAAGAYDLVVLALPAGRGTAYVQASLVAAARALRMGGRLYLAGDKNKGFERYFKEARALLGYGVVVRREGPYRVALLEKEKEAPPLPSLWRAFSARILGAEYTFHHLPGVFSAGKVDPASLLLLEALQERLGPEGVRGRQVLDLGAGYGALTLPLARMGAEVVGVEDDLASVLSLQKGLEANALKAQALHSDVDEALTEEARFDIIVTNPPFHVGGAVILDVAQAFVNVAAARLRPGGVFFLVSNPFLKYEPLLEEKFGAFQTLKVAEYKVLFAEKRGRHHHHHH,soluble
13,MSLTSDKIFFHHLDNLRPSLTPVKELKEPVGQIVCTDKGILAVEQNKVLIPPAWNKTFAWGYADLSCRLGTYESDKAVTVYECLSEWGQILCAVCPNPKLVITGGTSTVVCVWEMGTSKEKAKPLTLKQALLGHTDTVTCATASLAYHIIVSGSRDRTCIIWDLNKLSFLTQLRGHRAPVSALCINELTGDIVSCAGTYIHVWSINGNPIVSVNTFTGRSQQIVCCCMSEMNEWDTQNVIVTGHSDGVVRFWRMEFLQVPETPAPEPVEDLEMQEGCPEAQIGQQAQDDDSSDSETEEPSVSQDPKDTSSQPSSTSHRPRAASCRATATWCTDSGSDDSRRWSDQLSLDEKDGFIFVNYSEGQTRAHLQGPLAHPHPNPIEARSYSRLKPGYRWERQLVFRSKLTMHTAFDRKDNTHPAEVTALGVSKDHSRILVGDSRGRVFSWSVSDQPGRSAADHWVKDEGGDSCSGCSVRFSLTERRHHCRNCGQLFCQKCSRFQSEIKRLKISSPVRVCQNCYYSLQHERGAEDGPRNCEGHHHHHH,not soluble
14,MSLTSYALLHTQRVTAKNGEVFTISPDLWERNQQQQSLLLRYFALPLKEENNRLWLGVDSLSNLSACETIAFITGKPVEPILLESSQLKELLQQLTPNQMQVEEQVEGHHHHHH,soluble
15,MSLTSYHSHPPKAYRRFESVCTQAPNAIAVVDEGKLVTYQQLQTQVLERSEALIRQGLADHPYMPLMANRCLEYLITMLACCKLGITYVSIEPGTPSKRLIAVLEQLGCNHLLLLGQPTDLRPDPTLTCFRLDDCGTLCYDGPALRPPIRRRLDDASVITVMFTSGTTGLPKGVRISHDGLLNLVDNVQQQVQGKPRSYVHHSSIGFDAALFEVWVPLLTGACVTLQPGAFNIDALDHCVRAASCDVLLLTTSLFHLVAQHRLSMLDAVRVLYVGGEVLKPVHARALLLANPRITLVNGYGPTENTVFSTWYSLNKPEDAERDVMPIGQFLHQVYGKIVDAKLQEVEVGTPGELLLTGANLALGYLDDALTQTRFLQLPEGTYYRTGDYVIEDEHGMLFYQGRIDEQVKIKGFRVEIAEVEHALTQLPGVAQAVVQAHVMNDLEKSLHAFIVLRHGSPTIEESKLMSLLGDRLPHYMVPRRIHYLAELPLTANGKVDKRSLQPPEKAAAAPPQAGSAVLDIWSGILGTRNLQLEHSIYGYGASSLSVVMAHSRINEILGRTTPFDEVARLSTFQEWVQYYATHEDPVTSLRSQHGNEGHHHHHH,not soluble
16,MSLTTDVKDELSRLVVKSVSARRAEVTSLLRFAGGLHIVGGRVVVEAELDLGSIARRLRKEIFELYGYTAVVHVLSASGIRKSTRYVLRVANDGEALARQTGLLDMRGRPVRGLPAQVVGGSIDDAEAAWRGAFLAHGSLTEPGRSSALEVSCPGPEAALALVGAARRLGVGAKAREVRGADRVVVRDGEAIGALLTRMGAQDTRLVWEERRLRREVRATANRLANFDDANLRRSARAAVAAAARVERALEILGDTVPEHLASAGKLRVEHRQASLEELGRLADPPMTKDAVAGRIRRLLSMADRKAKVDGIPDTESVVTPDLLEDAEGHHHHHH,soluble
